Experimental data as given in FireProtDB (doi:10.1002/pro.5560050915).

Conditions: Bos taurus; pH 8.5; Thermal; DSC; ascorbate 1 mM; whole UniProt chain shown

B1: Adrenodoxin, mitochondrial wild type, P00257 (protein)
chain: MAARLLRVASAALGDTAGRWRLLARPRAGAGGLRGSRGPGLGGGAVATRTLSVSGRAQSSSEDKITVHFINRDGETLTTKGKIGDSLLDVVVQNNLDIDGFGACEGTLACSTCHLIFEQHIFEKLEAITDEENDMLDLAYGLTDRSRLGCQICLTKAMDNMTVRVPDAVSDARESIDMGMNSSKIE
Tm: 51.4 °C
heat capacity change of unfolding: 1.79 kcal/mol/K
unfolding enthalpy (calorimetric): 84.8 kcal/mol
